The source of these data is US20050244862A1.

Among the targets are ETB endothelin receptor; trk C receptor subtype; NK1 tachykinin receptor (UniProt P25103); NK2 tachykinin receptor (UniProt P21452).
Common to all, as to test: cell-based or functional assay
The target of a further test is T1, ETA endothelin receptor.
T1 sequence (P25101 whole entry, species assumed, looked up): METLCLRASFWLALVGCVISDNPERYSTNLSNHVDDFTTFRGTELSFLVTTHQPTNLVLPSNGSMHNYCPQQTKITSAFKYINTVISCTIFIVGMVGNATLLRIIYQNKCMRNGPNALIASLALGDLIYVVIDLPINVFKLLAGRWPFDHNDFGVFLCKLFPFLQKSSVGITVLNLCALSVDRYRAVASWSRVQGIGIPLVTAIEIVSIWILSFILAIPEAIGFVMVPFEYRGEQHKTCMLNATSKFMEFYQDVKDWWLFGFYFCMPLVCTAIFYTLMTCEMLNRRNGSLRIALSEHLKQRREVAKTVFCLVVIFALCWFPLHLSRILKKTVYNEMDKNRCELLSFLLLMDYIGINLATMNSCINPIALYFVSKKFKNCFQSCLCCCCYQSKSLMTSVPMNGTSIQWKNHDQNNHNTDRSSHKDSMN

Test [1] deals with human trk A receptor (human) (UniProt P04629).
A further test addresses T2, NK3 tachykinin receptor (UniProt P29371).
T2 sequence (looked up): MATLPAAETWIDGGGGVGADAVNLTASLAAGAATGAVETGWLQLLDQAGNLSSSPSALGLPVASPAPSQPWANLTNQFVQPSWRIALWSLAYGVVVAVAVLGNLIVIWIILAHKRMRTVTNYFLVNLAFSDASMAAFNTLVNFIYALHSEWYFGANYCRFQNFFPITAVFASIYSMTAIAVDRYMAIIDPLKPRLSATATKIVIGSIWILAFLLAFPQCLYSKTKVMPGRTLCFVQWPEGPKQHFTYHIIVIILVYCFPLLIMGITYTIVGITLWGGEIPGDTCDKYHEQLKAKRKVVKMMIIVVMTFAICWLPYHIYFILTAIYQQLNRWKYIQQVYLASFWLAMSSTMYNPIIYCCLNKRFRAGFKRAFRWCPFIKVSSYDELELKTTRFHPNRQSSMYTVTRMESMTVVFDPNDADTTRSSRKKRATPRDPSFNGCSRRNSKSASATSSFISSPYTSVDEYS

Sequence of human trk A receptor (human) (P04629 33-796): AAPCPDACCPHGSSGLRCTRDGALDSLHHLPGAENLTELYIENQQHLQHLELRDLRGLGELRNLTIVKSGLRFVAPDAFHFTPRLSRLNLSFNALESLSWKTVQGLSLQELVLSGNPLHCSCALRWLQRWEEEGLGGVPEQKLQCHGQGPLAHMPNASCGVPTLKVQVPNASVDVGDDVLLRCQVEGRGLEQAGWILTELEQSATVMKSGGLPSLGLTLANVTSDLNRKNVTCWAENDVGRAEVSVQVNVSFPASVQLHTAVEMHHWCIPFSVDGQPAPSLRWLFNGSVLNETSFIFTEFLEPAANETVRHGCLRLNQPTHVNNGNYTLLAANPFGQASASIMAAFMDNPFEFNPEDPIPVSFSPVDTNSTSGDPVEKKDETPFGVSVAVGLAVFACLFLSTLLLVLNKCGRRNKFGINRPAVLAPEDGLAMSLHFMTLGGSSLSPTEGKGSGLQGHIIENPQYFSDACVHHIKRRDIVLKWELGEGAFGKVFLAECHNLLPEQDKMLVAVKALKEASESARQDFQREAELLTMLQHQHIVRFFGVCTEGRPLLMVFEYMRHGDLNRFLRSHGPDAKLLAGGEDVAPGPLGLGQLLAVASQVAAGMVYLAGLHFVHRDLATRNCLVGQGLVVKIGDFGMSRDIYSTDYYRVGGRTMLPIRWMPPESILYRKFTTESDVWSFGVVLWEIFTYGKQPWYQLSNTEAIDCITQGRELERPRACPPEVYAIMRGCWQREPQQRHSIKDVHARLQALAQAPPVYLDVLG
Sequence of NK1 tachykinin receptor (P25103 whole entry): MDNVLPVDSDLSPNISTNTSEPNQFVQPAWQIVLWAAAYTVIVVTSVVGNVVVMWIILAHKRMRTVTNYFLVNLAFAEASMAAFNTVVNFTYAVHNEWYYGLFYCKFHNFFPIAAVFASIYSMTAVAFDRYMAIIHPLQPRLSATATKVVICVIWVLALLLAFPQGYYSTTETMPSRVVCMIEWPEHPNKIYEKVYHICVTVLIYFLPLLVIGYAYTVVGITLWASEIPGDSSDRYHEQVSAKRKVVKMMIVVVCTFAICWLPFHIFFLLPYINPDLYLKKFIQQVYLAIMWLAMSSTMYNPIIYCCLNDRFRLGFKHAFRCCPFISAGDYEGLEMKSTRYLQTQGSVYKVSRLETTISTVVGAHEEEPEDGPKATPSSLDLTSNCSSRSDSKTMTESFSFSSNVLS
Sequence of NK2 tachykinin receptor (P21452 whole entry): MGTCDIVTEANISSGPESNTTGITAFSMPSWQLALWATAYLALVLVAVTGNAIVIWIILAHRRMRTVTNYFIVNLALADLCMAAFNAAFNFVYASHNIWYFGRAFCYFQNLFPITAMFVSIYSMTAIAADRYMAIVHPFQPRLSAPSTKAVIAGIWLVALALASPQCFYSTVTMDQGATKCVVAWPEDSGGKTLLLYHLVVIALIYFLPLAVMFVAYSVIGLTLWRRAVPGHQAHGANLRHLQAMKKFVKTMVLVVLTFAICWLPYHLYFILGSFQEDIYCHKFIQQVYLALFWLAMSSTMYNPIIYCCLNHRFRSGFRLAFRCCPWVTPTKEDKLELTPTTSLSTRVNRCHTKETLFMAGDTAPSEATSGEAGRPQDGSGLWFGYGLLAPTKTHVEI
Sequence of ETB endothelin receptor (P24530 whole entry): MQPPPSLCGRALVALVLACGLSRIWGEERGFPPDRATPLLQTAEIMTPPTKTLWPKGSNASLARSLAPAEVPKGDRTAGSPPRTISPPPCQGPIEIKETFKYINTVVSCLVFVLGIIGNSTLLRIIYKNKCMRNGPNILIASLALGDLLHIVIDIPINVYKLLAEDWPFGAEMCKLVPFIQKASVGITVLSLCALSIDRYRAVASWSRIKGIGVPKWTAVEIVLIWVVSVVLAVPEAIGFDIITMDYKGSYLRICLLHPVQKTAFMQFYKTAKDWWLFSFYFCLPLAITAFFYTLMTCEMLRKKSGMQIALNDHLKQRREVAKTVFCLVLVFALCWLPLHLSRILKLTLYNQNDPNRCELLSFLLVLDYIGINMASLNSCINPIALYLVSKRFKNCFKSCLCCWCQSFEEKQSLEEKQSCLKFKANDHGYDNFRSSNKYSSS

B1: ET-3 (peptide, UniProt P14138 97-117, looked up)
peptide: CTCFTYKDKECVYYCHLDIIW
B1: the EC50, amplification assay (β-galactosidase), Single Receptor Format in the test with ETB endothelin receptor was found to be 0.14 nM; with ETA endothelin receptor it was 2.1 nM.

B2: neutrotrophic factor NT3 (ligand, UniProt P20783 139-257, looked up)
chain: YAEHKSHRGEYSVCDSESLWVTDKSSAIDIRGHQVTVLGEIKTGNSPVKQYFYETRCKEARPVKNGCRGIDDKHWNSQCKTSQTYVRALTSENNKLVGWRWIRIDTSCVCALSRKIGRT
B2: the EC50, amplification assay (β-galactosidase), Single Receptor Format in the test with trk C receptor subtype was 2.4 ng/mL; in test [1] it was more than 1000 ng/mL.

B3: ET-2 (peptide, UniProt P20800 49-69, looked up)
peptide: CSCSSWLDKECVYFCHLDIIW
In the test with ETA endothelin receptor, B3 gave an EC50, amplification assay (β-galactosidase), Single Receptor Format of 16 nM.

B4: neurokinin B (peptide, UniProt Q9UHF0 81-90, looked up)
peptide: DMHDFFVGLM
In the case of B4, the EC50, amplification assay (β-galactosidase), Single Receptor Format in the test with NK3 tachykinin receptor is 100 nM; with NK1 tachykinin receptor, 99 nM; with NK2 tachykinin receptor it was 1.3 nM.
